# Data taken from the supplement of paper PMC9170038.
# Test system: K4 kissing-loop RNA reporter
# Experiment: apparent KD of K4 kissing-loop reporter; higher = weaker reporter binding
# Details: Eterna round: R107
# Experimental: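 RNA-MaP round R107: designed RNA switches with theophylline, tryptophan, arginine or FMN aptamers are transcribed on-chip within common flanks. They are titrated with a labelled K4 kissing-loop RNA reporter in RNA-MaP buffer (100 mM Tris pH 7.5, 80 mM KCl, 4 mM MgCl2), without ligand or with the indicated ligand. Median apparent KD per design.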
# [1] = input ligand: theophylline 20 uM
# [2] = input ligand: tryptophan 2.4 mM
# 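Note: bound reporter read as fluorescence of individual clusters on recovered sequencing chips by microscopy, with normalized cluster intensities fitted with a binding model.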
Sequence,apparent KD of K4 kissing-loop reporter (input ligand: FMN 200 uM) [nM],apparent KD of K4 kissing-loop reporter (input ligand: arginine 13.2 mM) [nM],apparent KD of K4 kissing-loop reporter (input ligand: none) [nM],apparent KD of K4 kissing-loop reporter [1] [nM],apparent KD of K4 kissing-loop reporter [2] [nM]
AAGAGCUAGGCGGCCGCCACUAGUUGUGAACACAUACAAGCCAGUGAUGUUGGUAUGGUGGACGGUAGGACCGGGCCUAGCUGAA [Exclusion - Tryptophan B (Freestyle 16)],180,229,224,259,283
AUUUUAUUAACUGAUACCAGACUUAAUGAAUUGUAAAUUACUAGUGAUGUUAGUGAUUCUGUCCCUUGGCAGCAGUAUUUAUUAA [JR_ExcTheophyB_Sub012],129,146,139,141,118
GGAUUGCCAGUGAUGUUGGCAUAAACUGAAGGAGCGCGUGAAAACGCAGGUAGGUCGCAGAACCUUGCCAACUAUAUUAUUUACC [Ex Arginine A K4 22],111,137,123,146,102
UGACUGGACUGAAGGAGCGCGCGAGACAAAGUCUCGAACUCGUAGUGAUGUUAGGAAAUAACGCAGGUAGGUCGCAGUCUAGUCU,651,417,611,796,512
AAAACUCCGGGUAGUGAUGUUACCUAGGAUACCAGUAUCGCAACAUACCCUUGGCAGCCUCUUCCUGCUGGCGUCGCUUGGCCUA [theeternabot_exclusion_KL_Theo_A_42],95.2,80.5,90.8,91.9,75.1
AAAUAGAUCAGUCACCCAGUGAUGUUGGAAGGAGCGUGCGAAAGCACAGGUAGGUCGCCAAAAUAAAAUUGGCUGAUCAAAAUAA,304,310,361,485,195
ACGUAUAUCAGAGGAUAUCGUAUUAAUAUUUUAUCUAUCUAUAUAUGCAGUGAUGUUGCAAUAAUUCGAGAAGGCUGAUUUACGA [JR_ExcFMNB_Sub010],112,124,91.6,133,87.3
AAAAUAAACCAGUGAUGUUGGUGUCUGGAUACCAGCGACGAAAGUCGCCCUUGGCAGCUACGGACGUACAAAAUAAGUACGUCCU [MatMod 8 - Jieux - Same State - Theophylline A],709,487,655,680,561
AGGUUUUGAUUAGGAUAUGCACUGAGGAGGAGAAUAUAGUGAUGUUAUAUAAGAGGAAGGAGAAGAGUAGAAGGGAUUGAGGUUU [SSFMNB.Q],156,285,191,197,190
UUGGAAAUCAGAAGGAGCGUCUAAAAUGAAGGAACCAGUGAUGUUGGUUUUAUUUAAUGAAGACAGGUAGGUCGCUGAAUUUUUA [Same State Arginie B GF 18],91.4,101,94.4,116,91.5
CGUAGUUGGGCGGCCGCCACUUGAACAGCUUUGCCAAAGGCAGAGCUCUAGAGUGAUGUUCUGGCAAGGACCGGGUCCAACUACA [#02 K4 Tryptophan B Same State],1270,777,1240,822,423
AAUAAAAUCACGGCCGCCACUGAUUUUUUUAUUAGGAGUGAUGUUCCUAUGACUAUAUUAUUUAACAGGACCGGGUGAAUAUUUA [JR_SSTryptoB_Sub023],79.6,97.5,87.4,93.3,74.5
UGAUUUAACUGAAGGAGCGGCAAUUGAUAAGUAAAUAUAGUGAUGUUAUAUAAGAUAGAGAGCCAGGUAGGUCGCAGAGGGAGGA [ExArgB.J],169,139,159,159,129
CUGUCCUACGAAGGAUAUGCUGAUGGGAUCAAACAGUGAUGUUGUUAUGAACUUAGGCUUAUGUGCGCAGAAGGUCGUGGCGACG [theeternabot_sameState_KL_FMN_B_42],236,396,264,801,546
CCACCAAGCACGGCCGCCACUAAAUCUGCAAGUAACCUAAAGUGAUGUUUUAUCUUGCGUCAGACUAGGACCGGGUGUCAAGUUA [theeternabot_sameState_KL_Trp_B_45],420,408,387,704,755
CUUAAGAUAUGAGUGAUGUUUAUGUCCGAAGGAGCGUGCGAAAGUACAGGUAGGUCGCGGAUGUGAGUGAUGUUUAUGUAAGCGA [KL-XArg-A14 #analogue],121,37.1,120,75,103
CGCGCGCGUUUGAGAGGGCGCGCGCGAAGUGAGGAUAUUUAGGGAGAAAGAAGGCACUAUAAAAUAUAGUGAUGUUAUAUAAGGG [SSFMNA.F],603,111,288,469,186
UGAACUUUUGCUAGGAACCGUCUAGCUCUUUAGGAUAUCUGGAAACAGAGAAGGAAAGACCUACAGAGUGAUGUUCUGCGUUCAU,383,268,316,316,263
UGUAUGUGAUUUGAUACCAGACAAGCAGGUGUGACAAGAGUGAUGUUCUUGAUGGUUUGGGUCCCUUGGCAGCAAAUCGCAUACU [KL-SSTheoB16],194,145,178,141,154
CCAUCGCUAUUCGAUACCAGUCAUAAAAUCUUUGGUUAAAUAAAGGAGUGAUGUUCCAAAGACCCUUGGCAGCGAAUAGUGAUGG [Theophylline B K4 6],670,624,695,887,780
UGACUGGACUGAAGGAGCGAGGACGGUCAUAGACCGAAUUCAGUGAUGUUGAAAAUAAAACCUCAGGUAGGUCGCAGUCUAGUCU [ArgBS 3 #SwitchBubble #StaticStem],228,193,219,216,204
GGAACGUUGCGGACUAUCGCAUAAAGUCACCGAGGACCGGUACGGCCGCCACUCGCCAGUGAUGUUGGCGUGUUUGCGCGCUGUA [Isteri],99.6,91.1,101,83.6,117

Sequence,apparent KD of K4 kissing-loop reporter (input ligand: FMN 200 uM) [nM],apparent KD of K4 kissing-loop reporter (input ligand: arginine 13.2 mM) [nM],apparent KD of K4 kissing-loop reporter (input ligand: none) [nM],apparent KD of K4 kissing-loop reporter [1] [nM],apparent KD of K4 kissing-loop reporter [2] [nM]
CCCUCACGAGUGAUGUUCGUAGGGUACAGUCAGGAUAUCAUGCGGUUGAGAAGGGACAGAAAGGGCGGCCACGGGUUGCUCAUUU [Issogeso],200,352,343,492,530
CUGAUGCUGAUGCGGUGGCCGGUGGUCGUGCGAGGACCGGUACGGCCGCCACUCGCAUGAGUGAUGUUCAUGUGUCGUCGUCGUC [#04 K4 Tryptophan A Exclusion],204,133,169,164,172
CGCCGUAAGGCGAGCGCUCCCACUCCGGAAGGAGCGCCCGGAAGGGCAGGUAGGUCGCCGGAGUGAUGUUCCGGUGGAGGGCUCG [#2 Exclusion - Arginine A Attempt #12 (Inspired by Omei)],229,144,282,221,317
AAGCAGUCACGCGAAGCCAUCGAAGAUGGCCGAGGACCGGUACGGCCGCCACUCGGAGUGAUGUUCCGAAGACUGCAAAAUAAAA,370,386,417,468,252
CCUAUCUGUUACGAUACCAGUCAAAGAUAUUUUAUCAAUGCCCUCACCGAGUGAUGUUCGGACCCUUGGCAGCGUCUGGGAUAGG [pnnbmullin],187,138,185,119,150
AGAGUUUUAUGAGGAUAUGAGAUAGUUAAUGAGUGAGUUAUAGUGUAGUUUGGUUAGUGAUGUUAUUUAGAAGGCGUGAGUGAUG [zzfzmullin],205,92.9,143,101,108
UCGACAGUGAACGAUACCAGCGUCACGUGGCUGGUGGUCACAUGAGUGAUGUUCAUGUAACGCCCUUGGCAGCGUGCACGUAUCA [KL-XTheo-B8],141,127,133,125,129
AUUCUGUUUUUGAUGUUUUUUGUAUAAUGGCAGGAUAUCGUAGAAGCGAGAAGGGCUUUUAUGCGUUAUGAGUGAUGUUUGUAGG [ttytewvmullin],298,222,271,275,227
GAACGGCGGGCGGCCGCCACUGGUAUACGAGUGAUGUUCGGAUAUACGUGAUGUAAGGUAAUUAUCAGGACCGGGUCAGAGCCGG [#16 K4 Tryptophan B Same State],394,183,303,341,167
GCUACUGCCUUAGGAUAUAGUUGAGUGAUGUUCAAGCAUAUGCAUGGGAAAACCAUGCAUAUGUCCCUAGAAGGGAGGCAGUAGC,800,627,859,630,740
ACCCUGGGUCCCGAAAGGGACCCAGGGAGUGAGGAUAUGUGGAAACACAGAAGGCACAGCACAGUGAUGUUGUGCGACGAAAGUC [#02 K4 FMN A Same State],566,97.5,401,175,217
AGAGAUAUAUGAGGAUAUGGGUUAGUUAAUGAGUUAGUUUUAGUGUUGUUUGGUUAGUGAUGUUAUUUAGAAGGCGUGAGUGAUG [cqqbmullin],98.4,60.8,70,112,66.2
UCCUGCAAUCGCCCACGAAAGUGGAUUGAUACCAGAGUCGAAAGACUCCCUUGGCAGCGAGUGAUGUUCGAAGCAGGUAAAUAAA,326,503,562,540,459
UUUGGUUUCUCGGCCGCCACUCGUUGGUUAUGGGCCUCAGGGAUAUAGUGAUGUUAUGUAAAGAAGAGGACCGGGAGAAGGAAGG [ExTryptoB.Do],493,395,225,283,380
CUCGUGGGUUUGAGAGGGCUUGUGGGAAGAUAGGAUAUCUAGGGAGGGAGAAGGAUCUAUAGAAUAUAGUGAUGUUAUAUAUGGG [#05 K4 FMN A Same State],164,131,87.7,154,122
GAUCUAUGUCCCGAUACCAGCUCAGAAGCUAGGGAGUGAUGUUCUCGGAGGUUAUCACUGAGCCCUUGGCAGCGGAACGUGACGA [theeternabot_sameState_KL_Theo_B_26],227,182,239,230,218
ACUUAGAAUGAAGGAUAUUGGUUACGAGGGCUAACCAAAACGGAUCACUUGUCCAGUGAUGUUGUCCAAGAAGGUCACGUUAAAC [theeternabot_exclusion_KL_FMN_B_44],776,665,868,492,576
UUUCAAAUUUAAGGAUAUUAGAUACCAGGAAAGGAGUGAUGUUCCGUGCUACGAUAGUGCUAGGGCUAAGAAGGUAAGUCUCGAG [theeternabot_sameState_KL_FMN_B_37],79.1,87.2,85.6,89.6,59.1
CGUACGGUUUCUUUCUUUCCGUACGAGUGCCGAGGACCGGUACGGCCGCCACUCGCUACAGCCUAGUGAUGUUAGGCAUUUCUUU,104,110,105,146,94.1
AGGUAGUCCCUUGUUGUCAUCGAAGAUGAACGAGGACCGGUACGGCCGCCACUCGGAGUGAUGUUCCGAUGGCUGCAAAAUAAAA [MatMod 23 - Jieux - Exclusion - Tryptophan A],108,89,97.2,85.9,103
GCUAUGGUAGGAAGGAGCGCGGACGAAAUAUAUCGAGUGAUGUUCGAAUAAUUAAAUAAAACGCAGGUAGGUCGCCUACUAUAGC [Arginine B K4 25],116,114,110,120,97.6
